Values quoted from earlier work as cited in PMC9456110.
Read-outs that look alike come from different tables or passages of the source. One block for each substance: values may come before it.

Experiments:
[1] = molecular target: Calmodulin (Homo sapiens) (UniProt P0DP23)
[2] = molecular target: Calmodulin (Homo sapiens) (UniProt P0DP23); remark: listed apart in the source
PIP (Homo sapiens) = PIP (Homo sapiens) (UniProt P12273)
[3] = molecular target: Calmodulin (Homo sapiens) (UniProt P0DP23); remark: listed apart in the source
[4] = molecular target: Calmodulin (Homo sapiens) (UniProt P0DP23); remark: listed apart in the source
[5] = molecular target: Calmodulin (Homo sapiens) (UniProt P0DP23); remark: listed apart in the source

Sequence of UniProt P12273 (P12273 29-146): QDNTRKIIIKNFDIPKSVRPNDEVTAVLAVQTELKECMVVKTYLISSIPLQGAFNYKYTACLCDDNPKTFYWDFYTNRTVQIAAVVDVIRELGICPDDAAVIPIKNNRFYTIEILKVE

Substance: AQP6 N-terminus (from UniProt Q8C4A0)
Kd [2]: 790 nM

Substance: AQP4 C-terminus (from UniProt P55087)
Kd [3]: 3600 nM

Substance: AQP4 N-terminus (from UniProt P55087)
Kd [4]: 3400 nM

The next lines start with the values.

Kd [1]: 29000 nM
Substance: AQP4 (from UniProt P55087)

Kd (PIP (Homo sapiens)): 570 nM
Substance: AQP5 C-terminus (from UniProt P55064)

Kd [5]: 1780 nM
Substance: AQP6 N-terminus (from UniProt Q13520)
